# Source: PMC6379665 (Nucleic Acids Research, 2018)
# Substitutions are numbered along the chain they refer to.
# T1: bacteriophage λ terminase large subunit TerL^λ-E179A (bacteriophage λ, UniProt P03708 1-641, E179A)
# T1 sequence (looked up): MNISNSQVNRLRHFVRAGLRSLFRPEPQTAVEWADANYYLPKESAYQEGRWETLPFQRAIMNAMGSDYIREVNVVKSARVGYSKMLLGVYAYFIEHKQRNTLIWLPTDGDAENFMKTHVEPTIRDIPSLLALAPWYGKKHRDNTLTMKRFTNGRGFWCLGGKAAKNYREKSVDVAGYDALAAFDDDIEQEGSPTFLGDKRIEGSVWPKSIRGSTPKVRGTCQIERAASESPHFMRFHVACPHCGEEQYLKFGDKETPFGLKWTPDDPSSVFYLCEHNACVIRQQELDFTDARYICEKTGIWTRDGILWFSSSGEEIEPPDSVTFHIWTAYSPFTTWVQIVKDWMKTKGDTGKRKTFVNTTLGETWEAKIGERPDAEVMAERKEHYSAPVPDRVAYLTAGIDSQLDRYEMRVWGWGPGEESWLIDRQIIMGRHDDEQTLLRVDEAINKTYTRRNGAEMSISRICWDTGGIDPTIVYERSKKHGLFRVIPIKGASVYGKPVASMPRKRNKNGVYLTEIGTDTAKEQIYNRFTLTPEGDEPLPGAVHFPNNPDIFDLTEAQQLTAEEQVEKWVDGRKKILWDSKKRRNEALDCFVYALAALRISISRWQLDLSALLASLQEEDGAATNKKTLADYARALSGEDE
# T2: bacteriophage λ terminase large subunit TerL^λ, wild type (bacteriophage λ, UniProt P03708 1-641)
# T2 sequence (looked up): T1 sequence (looked up) with A179E
# T3: bacteriophage λ terminase large subunit TerL^λ-E179Q (bacteriophage λ, UniProt P03708 1-641, E179Q)
# T3 sequence (looked up): T1 sequence (looked up) with A179Q
# B1: bacteriophage λ terminase small subunit TerS (natural protein, UniProt P03707 1-181, looked up)
# chain: MEVNKKQLADIFGASIRTIQNWQEQGMPVLRGGGKGNEVLYDSAAVIKWYAERDAEIENEKLRREVEELRQASEADLQPGTIEYERHRLTRAQADAQELKNARDSAEVVETAFCTFVLSRIAGEIASILDGLPLSVQRRFPELENRHVDFLKRDIIKAMNKAAALDELIPGLLSEYIEQSG
# How the values were obtained:
# Assay in all cases: AUC
# [1] = biological target: bacteriophage λ terminase protomer (TerL•TerS2), wild type (bacteriophage λ) (UniProt P03708)
# [2] = biological target: T1, bacteriophage λ terminase large subunit …
# [3] = biological target: T2, bacteriophage λ terminase large subunit …
# [4] = biological target: T3, bacteriophage λ terminase large subunit …
Molecule,stoichiometry N [1],binding result [2],binding result [3],binding result [4]
"bacteriophage λ terminase protomer (TerL•TerS2), wild type (from UniProt P03708 1-641; P03707 1-181) (complex)",4,–,–,–
B1,–,binds,binds,binds
